B1: KLHL20 (parent)
chain: YQDMIYAVGGRDDTTELSSAERYN
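Note: lentivirally expressed fusions sorted by FACS into six bins by GFP to DsRed ratio, PSI derived from sequencing read proportions per bin multiplied by bin number.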

Variants of B1 are the subject of the data set. Nature of the data set: protein stability index of a GFP-peptide fusion (GPS, HEK-293T) (PSI 1-6); higher = more stable. To be noted: c terminus: a fixed tail appended.
As for YQHMIYAVGGRDDTTELSSAERYN [D3H], the protein stability index stood at 2.15.

In the case of YQFMIYAVGGRDDTTELSSAERYN [D3F], the protein stability index worked out at 1.88.

Take YQCMIYAVGGRDDTTELSSAERYN [D3C]: the protein stability index is 2.15.

As for YQKMIYAVGGRDDTTELSSAERYN [D3K], the protein stability index was determined as 2.79.

For YQLMIYAVGGRDDTTELSSAERYN [D3L], the protein stability index amounted to 1.81.

YQTMIYAVGGRDDTTELSSAERYN [D3T]: the protein stability index worked out at 1.56.

With YQYMIYAVGGRDDTTELSSAERYN [D3Y], the protein stability index worked out at 1.77.

Take YQVMIYAVGGRDDTTELSSAERYN [D3V]: the protein stability index was determined as 1.86.

Turning to YQGMIYAVGGRDDTTELSSAERYN [D3G], the protein stability index worked out at 1.47.

With YQPMIYAVGGRDDTTELSSAERYN [D3P], the protein stability index stood at 3.4.

YQWMIYAVGGRDDTTELSSAERYN [D3W]: the protein stability index was 2.03.

Consider YQAMIYAVGGRDDTTELSSAERYN [D3A], for which the protein stability index was 1.7.

YQIMIYAVGGRDDTTELSSAERYN [D3I]: the protein stability index worked out at 2.26.

On to YQRMIYAVGGRDDTTELSSAERYN [D3R], for which the protein stability index is 2.83.

In the case of YQQMIYAVGGRDDTTELSSAERYN [D3Q], the protein stability index worked out at 3.08.

Regarding YQMMIYAVGGRDDTTELSSAERYN [D3M], the protein stability index was determined as 1.81.

Regarding YQNMIYAVGGRDDTTELSSAERYN [D3N], the protein stability index stood at 2.63.

As for YQSMIYAVGGRDDTTELSSAERYN [D3S], the protein stability index was found to be 1.99.

Consider YQEMIYAVGGRDDTTELSSAERYN [D3E], for which the protein stability index was found to be 2.48.

As for YQDMIAAVGGRDDTTELSSAERYN [Y6A], the protein stability index worked out at 3.85.

For the variant YQDMIHAVGGRDDTTELSSAERYN [Y6H], the protein stability index was determined as 3.27.

Take YQDMIMAVGGRDDTTELSSAERYN [Y6M]: the protein stability index came out at 2.98.

Take YQDMISAVGGRDDTTELSSAERYN [Y6S]: the protein stability index was 3.88.

YQDMILAVGGRDDTTELSSAERYN [Y6L]: the protein stability index stood at 2.88.

For the variant YQDMIPAVGGRDDTTELSSAERYN [Y6P], the protein stability index turned out to be 3.41.

As to YQDMIIAVGGRDDTTELSSAERYN [Y6I], the protein stability index was found to be 3.08.

Consider YQDMIVAVGGRDDTTELSSAERYN [Y6V], for which the protein stability index turned out to be 3.01.

Regarding YQDMIGAVGGRDDTTELSSAERYN [Y6G], the protein stability index worked out at 3.77.

With YQDMIWAVGGRDDTTELSSAERYN [Y6W], the protein stability index was found to be 2.51.

Turning to YQDMITAVGGRDDTTELSSAERYN [Y6T], the protein stability index turned out to be 3.94.

With YQDMICAVGGRDDTTELSSAERYN [Y6C], the protein stability index came to 2.71.

As to YQDMIQAVGGRDDTTELSSAERYN [Y6Q], the protein stability index came out at 3.87.

In the case of YQDMIDAVGGRDDTTELSSAERYN [Y6D], the protein stability index was 4.74.

On to YQDMINAVGGRDDTTELSSAERYN [Y6N], for which the protein stability index came out at 3.98.

Consider YQDMIKAVGGRDDTTELSSAERYN [Y6K], for which the protein stability index came out at 3.43.

Consider YQDMIRAVGGRDDTTELSSAERYN [Y6R], for which the protein stability index worked out at 3.37.

As for YQDMIEAVGGRDDTTELSSAERYN [Y6E], the protein stability index came out at 4.55.

YQDMIFAVGGRDDTTELSSAERYN [Y6F]: the protein stability index was found to be 2.14.

Take YQDKIYAVGGRDDTTELSSAERYN [M4K]: the protein stability index came out at 2.65.

On to YQDVIYAVGGRDDTTELSSAERYN [M4V], for which the protein stability index turned out to be 3.02.

With YQDPIYAVGGRDDTTELSSAERYN [M4P], the protein stability index was 2.6.

For YQDDIYAVGGRDDTTELSSAERYN [M4D], the protein stability index was found to be 3.48.

Regarding YQDGIYAVGGRDDTTELSSAERYN [M4G], the protein stability index was determined as 2.48.

YQDIIYAVGGRDDTTELSSAERYN [M4I]: the protein stability index amounted to 2.4.

Take YQDLIYAVGGRDDTTELSSAERYN [M4L]: the protein stability index was found to be 2.31.

Turning to YQDTIYAVGGRDDTTELSSAERYN [M4T], the protein stability index amounted to 3.15.

In the case of YQDFIYAVGGRDDTTELSSAERYN [M4F], the protein stability index is 1.84.

In the case of YQDAIYAVGGRDDTTELSSAERYN [M4A], the protein stability index came out at 2.51.

As to YQDRIYAVGGRDDTTELSSAERYN [M4R], the protein stability index came out at 2.75.

As for YQDQIYAVGGRDDTTELSSAERYN [M4Q], the protein stability index was 2.66.

In the case of YQDSIYAVGGRDDTTELSSAERYN [M4S], the protein stability index turned out to be 3.27.

With YQDNIYAVGGRDDTTELSSAERYN [M4N], the protein stability index is 3.12.

In the case of YQDCIYAVGGRDDTTELSSAERYN [M4C], the protein stability index came out at 2.68.

As to YQDWIYAVGGRDDTTELSSAERYN [M4W], the protein stability index was 2.85.

YQDYIYAVGGRDDTTELSSAERYN [M4Y]: the protein stability index came to 2.77.

Regarding YQDHIYAVGGRDDTTELSSAERYN [M4H], the protein stability index is 2.55.

YQDEIYAVGGRDDTTELSSAERYN [M4E]: the protein stability index is 3.68.

As to YQDMIYARGGRDDTTELSSAERYN [V8R], the protein stability index came out at 2.52.

Take YQDMIYAGGGRDDTTELSSAERYN [V8G]: the protein stability index came out at 2.81.

Consider YQDMIYAWGGRDDTTELSSAERYN [V8W], for which the protein stability index came out at 1.94.

Take YQDMIYAIGGRDDTTELSSAERYN [V8I]: the protein stability index came out at 1.97.

For YQDMIYACGGRDDTTELSSAERYN [V8C], the protein stability index was 2.37.

As to YQDMIYAYGGRDDTTELSSAERYN [V8Y], the protein stability index turned out to be 2.09.

For the variant YQDMIYAQGGRDDTTELSSAERYN [V8Q], the protein stability index came to 2.6.

Take YQDMIYAMGGRDDTTELSSAERYN [V8M]: the protein stability index was determined as 1.75.

On to YQDMIYANGGRDDTTELSSAERYN [V8N], for which the protein stability index was 2.81.

In the case of YQDMIYADGGRDDTTELSSAERYN [V8D], the protein stability index was 3.45.

For the variant YQDMIYALGGRDDTTELSSAERYN [V8L], the protein stability index was 1.86.

As to YQDMIYAFGGRDDTTELSSAERYN [V8F], the protein stability index came out at 1.87.

As to YQDMIYAHGGRDDTTELSSAERYN [V8H], the protein stability index is 2.84.

In the case of YQDMIYATGGRDDTTELSSAERYN [V8T], the protein stability index is 2.41.

With YQDMIYAPGGRDDTTELSSAERYN [V8P], the protein stability index came out at 2.79.

YQDMIYAEGGRDDTTELSSAERYN [V8E]: the protein stability index turned out to be 3.38.

With YQDMIYAKGGRDDTTELSSAERYN [V8K], the protein stability index turned out to be 2.44.

For YQDMIYASGGRDDTTELSSAERYN [V8S], the protein stability index amounted to 2.65.

As for YQDMIYAAGGRDDTTELSSAERYN [V8A], the protein stability index was found to be 2.77.

As for YQDMIYAVGRRDDTTELSSAERYN [G10R], the protein stability index is 1.86.

Regarding YQDMIYAVGLRDDTTELSSAERYN [G10L], the protein stability index stood at 1.78.

On to YQDMIYAVGCRDDTTELSSAERYN [G10C], for which the protein stability index was 2.23.

As to YQDMIYAVGYRDDTTELSSAERYN [G10Y], the protein stability index is 1.8.

On to YQDMIYAVGQRDDTTELSSAERYN [G10Q], for which the protein stability index is 2.61.

As for YQDMIYAVGNRDDTTELSSAERYN [G10N], the protein stability index is 2.45.

For the variant YQDMIYAVGMRDDTTELSSAERYN [G10M], the protein stability index was found to be 1.87.

As to YQDMIYAVGHRDDTTELSSAERYN [G10H], the protein stability index worked out at 2.12.

As to YQDMIYAVGIRDDTTELSSAERYN [G10I], the protein stability index amounted to 1.62.

Consider YQDMIYAVGDRDDTTELSSAERYN [G10D], for which the protein stability index came out at 2.81.

As to YQDMIYAVGSRDDTTELSSAERYN [G10S], the protein stability index came out at 2.09.

For the variant YQDMIYAVGTRDDTTELSSAERYN [G10T], the protein stability index is 1.82.

For the variant YQDMIYAVGVRDDTTELSSAERYN [G10V], the protein stability index came to 2.05.

As to YQDMIYAVGERDDTTELSSAERYN [G10E], the protein stability index was found to be 2.92.

As for YQDMIYAVGKRDDTTELSSAERYN [G10K], the protein stability index was 1.83.

Consider YQDMIYAVGFRDDTTELSSAERYN [G10F], for which the protein stability index was 2.27.

For YQDMIYAVGARDDTTELSSAERYN [G10A], the protein stability index was determined as 1.83.

On to YQDMIYAVGWRDDTTELSSAERYN [G10W], for which the protein stability index was determined as 1.91.
